Usually IC50 stands for the concentration that inhibits the measured activity by half. Low readings indicate higher potency, high ones lower potency.

The results in this text go back to US20090028788A1 (WASHINGTON UNIVERSITY IN ST LOUIS, published 2009).

[ ]: non-standard residue; d: D form. The star is where a group is joined. Cypate = CC1(C)C(/C=C/C=C/C=C/C=C2/N(CCC(=O)*)c3ccc4ccccc4c3C2(C)C)=[N+](CCC(=O)O)c2ccc3ccccc3c21

Assay [1] has as its target T1, purified human αvβ3 integrin protein (human, UniProt P06756 31-1048; P05106 27-788).
T1 construct: Bought heterodimer; also called ABI; purified αvβ3 integrin
Description: competition with 125I-echistatin on purified human αvβ3 integrin, filter plate.

Assay [2] deals with T1, purified human αvβ3 integrin protein. The description is as above. The source holds these as a separate data set.
Assay [3] has the same target. Description: competition with 125I-echistatin on purified αvβ3 integrin, filtration plate (Example 3).
For assay [4] the target is unchanged. In words: competition with 125I-echistatin on purified human αvβ3 integrin, filter plate. The source holds these as a separate data set.

“Cypate(Octreotate)1-(Arg-Gly-Asp-NH2)1 (peptide)” returned an IC50 in assay [1] of 4670 nM.

B1: Cypate-Gly-Arg-Asp-Ser-Pro-Lys-OH (peptide)
peptide: GRDSPK
HELM: PEPTIDE1{[CC1(C)C(/C=C/C=C/C=C/C=C2/N(CCC(=O)[*:2])c3ccc4ccccc4c3C2(C)C)=[N+](CCC(=O)O)c2ccc3ccccc3c21].G.R.D.S.P.K}$$$$V2.0
SMILES: CC1(C)C(/C=C/C=C/C=C/C=C2/N(CCC(=O)NCC(=O)N[C@@H](CCCNC(=N)N)C(=O)N[C@@H](CC(=O)O)C(=O)N[C@@H](CO)C(=O)N3CCC[C@H]3C(=O)N[C@@H](CCCCN)C(=O)O)c3ccc4ccccc4c3C2(C)C)=[N+](CCC(=O)O)c2ccc3ccccc3c21
notes: also called Cypate-GRDSPK; Cypate-GRDSPK-OH
Turning to B1, the concentration for half-maximal inhibition (IC50) in assay [2] was 7.02 µM; in assay [3], more than 100 µM.

B2: Cyclo(Lys(Cypate)-Arg-Gly-Asp-DPhe-Val) (peptide)
peptide: cyclo(K(Cypate)RGD[dF]V)
SMILES: CC(C)[C@@H]1NC(=O)[C@@H](Cc2ccccc2)NC(=O)[C@H](CC(=O)O)NC(=O)CNC(=O)[C@H](CCCNC(=N)N)NC(=O)[C@H](CCCCNC(=O)CCN2/C(=C/C=C/C=C/C=C/C3=[N+](CCC(=O)O)c4ccc5ccccc5c4C3(C)C)C(C)(C)c3c2ccc2ccccc32)NC1=O
notes: also called Cyclo(K^(Cypate)RGDfV); cyclo-[K^(Cypate)RGDfV]
For the molecule B2, the figures for the concentration for half-maximal inhibition (IC50) in assay [2], in assay [4] and in assay [3] were 79.5 µM, 79500 nM and 79.1 µM, respectively.

B3: Cypate-Gly-Arg-Gly-Asp-Ser-Pro-Lys-OH (peptide)
peptide: GRGDSPK
HELM: PEPTIDE1{[CC1(C)C(/C=C/C=C/C=C/C=C2/N(CCC(=O)[*:2])c3ccc4ccccc4c3C2(C)C)=[N+](CCC(=O)O)c2ccc3ccccc3c21].G.R.G.D.S.P.K}$$$$V2.0
SMILES: CC1(C)C(/C=C/C=C/C=C/C=C2/N(CCC(=O)NCC(=O)N[C@@H](CCCNC(=N)N)C(=O)NCC(=O)N[C@@H](CC(=O)O)C(=O)N[C@@H](CO)C(=O)N3CCC[C@H]3C(=O)N[C@@H](CCCCN)C(=O)O)c3ccc4ccccc4c3C2(C)C)=[N+](CCC(=O)O)c2ccc3ccccc3c21
notes: also called Cypate-GRGDSPK; Cypate-GRGDSPK-OH
In the case of B3, the concentration for half-maximal inhibition (IC50) was found to be 0.328 µM in assay [2] and 10.7 µM in assay [3].

B4: cyclo[RGDfVK] (peptide)
peptide: RGDXVK
HELM: PEPTIDE1{R.G.D.[dF].V.K}$PEPTIDE1,PEPTIDE1,1:R1-6:R2$$$V2.0
SMILES: CC(C)[C@@H]1NC(=O)[C@@H](Cc2ccccc2)NC(=O)[C@H](CC(=O)O)NC(=O)CNC(=O)[C@H](CCCNC(=N)N)NC(=O)[C@H](CCCCN)NC1=O
B4 returned an IC50 in assay [3] of 1.93 µM.

B5: Cypate-cyclo(CRGDGRC)-NH2 (peptide)
peptide: CRGDGRC
HELM: PEPTIDE1{[CC1(C)C(/C=C/C=C/C=C/C=C2/N(CCC(=O)[*:2])c3ccc4ccccc4c3C2(C)C)=[N+](CCC(=O)O)c2ccc3ccccc3c21].C.R.G.D.G.R.C.[am]}$PEPTIDE1,PEPTIDE1,2:R3-8:R3$$$V2.0
SMILES: CC1(C)C(/C=C/C=C/C=C/C=C2/N(CCC(=O)N[C@H]3CSSC[C@@H](C(N)=O)NC(=O)[C@H](CCCNC(=N)N)NC(=O)CNC(=O)[C@H](CC(=O)O)NC(=O)CNC(=O)[C@H](CCCNC(=N)N)NC3=O)c3ccc4ccccc4c3C2(C)C)=[N+](CCC(=O)O)c2ccc3ccccc3c21
B5: the IC50 in assay [4] stood at 1090 nM.

B6: Cypate-Lys-Arg-Gly-Asp-DPhe-Asp-DPhe-EAhx-NH2 (peptide)
peptide: KRGDXDXX
HELM: PEPTIDE1{[CC1(C)C(/C=C/C=C/C=C/C=C2/N(CCC(=O)[*:2])c3ccc4ccccc4c3C2(C)C)=[N+](CCC(=O)O)c2ccc3ccccc3c21].K.R.G.D.[dF].D.[dF].[O=C(CCCCCN[*:1])[*:2]].[am]}$$$$V2.0
SMILES: CC1(C)C(/C=C/C=C/C=C/C=C2/N(CCC(=O)N[C@@H](CCCCN)C(=O)N[C@@H](CCCNC(=N)N)C(=O)NCC(=O)N[C@@H](CC(=O)O)C(=O)N[C@H](Cc3ccccc3)C(=O)N[C@@H](CC(=O)O)C(=O)N[C@H](Cc3ccccc3)C(=O)NCCCCCC(N)=O)c3ccc4ccccc4c3C2(C)C)=[N+](CCC(=O)O)c2ccc3ccccc3c21
For the molecule B6, in assay [1], the half-maximal inhibitory concentration (IC50) was determined as 328 nM.

B7: Cypate-cyclo(CRGDSC)-NH2 (peptide)
peptide: CRGDSC
HELM: PEPTIDE1{[CC1(C)C(/C=C/C=C/C=C/C=C2/N(CCC(=O)[*:2])c3ccc4ccccc4c3C2(C)C)=[N+](CCC(=O)O)c2ccc3ccccc3c21].C.R.G.D.S.C.[am]}$PEPTIDE1,PEPTIDE1,2:R3-7:R3$$$V2.0
SMILES: CC1(C)C(/C=C/C=C/C=C/C=C2/N(CCC(=O)N[C@H]3CSSC[C@@H](C(N)=O)NC(=O)[C@H](CO)NC(=O)[C@H](CC(=O)O)NC(=O)CNC(=O)[C@H](CCCNC(=N)N)NC3=O)c3ccc4ccccc4c3C2(C)C)=[N+](CCC(=O)O)c2ccc3ccccc3c21
notes: also called Cypate-[Cyclo-(Cys-Arg-Gly-Asp-Ser-Cys)]1
In turn, B7 returned an IC50 in assay [4] of 1140 nM.

B8: Cypate-cyclo(CRGDDC)-NH2 (peptide)
peptide: CRGDDC
HELM: PEPTIDE1{[CC1(C)C(/C=C/C=C/C=C/C=C2/N(CCC(=O)[*:2])c3ccc4ccccc4c3C2(C)C)=[N+](CCC(=O)O)c2ccc3ccccc3c21].C.R.G.D.D.C.[am]}$PEPTIDE1,PEPTIDE1,2:R3-7:R3$$$V2.0
SMILES: CC1(C)C(/C=C/C=C/C=C/C=C2/N(CCC(=O)N[C@H]3CSSC[C@@H](C(N)=O)NC(=O)[C@H](CC(=O)O)NC(=O)[C@H](CC(=O)O)NC(=O)CNC(=O)[C@H](CCCNC(=N)N)NC3=O)c3ccc4ccccc4c3C2(C)C)=[N+](CCC(=O)O)c2ccc3ccccc3c21
On to B8, for which the half-maximal inhibitory concentration (IC50) in assay [4] was determined as 1890 nM.

B9: Cypate-cyclo(CRGDLC)-NH2 (peptide)
peptide: CRGDLC
HELM: PEPTIDE1{[CC1(C)C(/C=C/C=C/C=C/C=C2/N(CCC(=O)[*:2])c3ccc4ccccc4c3C2(C)C)=[N+](CCC(=O)O)c2ccc3ccccc3c21].C.R.G.D.L.C.[am]}$PEPTIDE1,PEPTIDE1,2:R3-7:R3$$$V2.0
SMILES: CC(C)C[C@@H]1NC(=O)[C@H](CC(=O)O)NC(=O)CNC(=O)[C@H](CCCNC(=N)N)NC(=O)[C@@H](NC(=O)CCN2/C(=C/C=C/C=C/C=C/C3=[N+](CCC(=O)O)c4ccc5ccccc5c4C3(C)C)C(C)(C)c3c2ccc2ccccc32)CSSC[C@@H](C(N)=O)NC1=O
With B9, in assay [4], the concentration for half-maximal inhibition (IC50) was found to be 9640 nM.
